Data published in the supplement of paper PMC12042874.
± gives the uncertainty stated by the source.

Test: amyloid nucleation score (Sup35N fusion, yeast selection) (log enrichment); library NNK3; higher = more nucleation; inactive = no reads after selection
Outline: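 Growth for 7 days at 30°C on medium lacking adenine and uracil followed a 24-hour induction with 100 μM copper sulfate of psi-negative yeast expressing peptides of 20 random codons fused to Sup35N. Input and output plasmid inserts were sequenced with Illumina, and sequences with under 100 input reads were excluded. Nucleation score is the DiMSum log enrichment of output over input reads, centred on the mode score of non-aggregating sequences.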

For VILNCR, which amyloid nucleation score is on record?
Its amyloid nucleation score is “inactive”.

For VINKRRWTSNGNCILEVRHG, which amyloid nucleation score is on record?
Its amyloid nucleation score is “inactive”.

For VKAVLY, which amyloid nucleation score is on record?
The amyloid nucleation score was “inactive”.

With VKFVCKAELLDLT as the substance, how does the amyloid nucleation score read?
Its amyloid nucleation score is “inactive”.

With VKIFS as the substance, how does the amyloid nucleation score read?
The amyloid nucleation score was “inactive”.

For VKLFKVPLVLSMRL, which amyloid nucleation score is on record?
The amyloid nucleation score was “inactive”.

Which amyloid nucleation score does the source give for VKNFLGY here?
Its amyloid nucleation score is “inactive”.

Which amyloid nucleation score does the source give for VKSFFSKGSCDNDTNINRRS here?
The amyloid nucleation score was “inactive”.

Which amyloid nucleation score does the source give for VKTRTIRVSH here?
Its amyloid nucleation score is “inactive”.

Which amyloid nucleation score does the source give for VKVFFPIVRCDTYHIYKQWG here?
The amyloid nucleation score was 2.51 ± 0.053.

With VLACSHWLMLSRTKYMMRIV as the substance, how does the amyloid nucleation score read?
The amyloid nucleation score was “inactive”.

For VLANGKTSELRELKVHLLAG, which amyloid nucleation score is on record?
The amyloid nucleation score was -0.274 ± 1.1.

With VLCCLDYIYPVGALGYYACI as the substance, how does the amyloid nucleation score read?
The amyloid nucleation score was “inactive”.

For VLDFRRPRNISRS, which amyloid nucleation score is on record?
Its amyloid nucleation score is “inactive”.

With VLDLCDVY as the substance, how does the amyloid nucleation score read?
The amyloid nucleation score was “inactive”.

With VLEYHTQPWGLAQRQTWLSG as the substance, how does the amyloid nucleation score read?
Its amyloid nucleation score is “inactive”.

Which amyloid nucleation score does the source give for VLFINACYPLIISYQ here?
Its amyloid nucleation score is 1.97 ± 0.066.

For VLFSGFFYLSDNYKLMGFVH, which amyloid nucleation score is on record?
The amyloid nucleation score was “inactive”.

Which amyloid nucleation score does the source give for VLGSRVKGDYCRCLEMECIW here?
Its amyloid nucleation score is “inactive”.

With VLGVVT as the substance, how does the amyloid nucleation score read?
The amyloid nucleation score was “inactive”.

Which amyloid nucleation score does the source give for VLISVLSRLRCMSGGLYTPN here?
The amyloid nucleation score was “inactive”.

For VLIYDVCCALNLCCGFRTFG, which amyloid nucleation score is on record?
The amyloid nucleation score was 1.77 ± 0.081.

Which amyloid nucleation score does the source give for VLLARIDAVFITVLR here?
Its amyloid nucleation score is 1.25 ± 0.12.

Which amyloid nucleation score does the source give for VLLFC here?
Its amyloid nucleation score is “inactive”.

With VLLFLTFMYSLSFWSMLLRG as the substance, how does the amyloid nucleation score read?
Its amyloid nucleation score is “inactive”.

Which amyloid nucleation score does the source give for VLLSNNRILYETFL here?
The amyloid nucleation score was “inactive”.

Which amyloid nucleation score does the source give for VLLSRMIYALPGYSVL here?
Its amyloid nucleation score is 1.93 ± 0.075.

With VLLTVECLFYSS as the substance, how does the amyloid nucleation score read?
The amyloid nucleation score was “inactive”.

Which amyloid nucleation score does the source give for VLLYDECMMFVNSLMFTNSE here?
The amyloid nucleation score was -0.501 ± 0.66.

With VLNDFMCDFGSWPRVIVIRT as the substance, how does the amyloid nucleation score read?
Its amyloid nucleation score is “inactive”.

Which amyloid nucleation score does the source give for VLRQDISDDQSEAPEMNPHR here?
The amyloid nucleation score was “inactive”.

Which amyloid nucleation score does the source give for VLRSAYAALFLNRFSRFDCR here?
The amyloid nucleation score was “inactive”.

With VLRSNKYRITMGMGKKFPAL as the substance, how does the amyloid nucleation score read?
The amyloid nucleation score was “inactive”.

For VLSVSLNACTIGWST, which amyloid nucleation score is on record?
The amyloid nucleation score was 1.34 ± 0.1.

With VLSVWDHLYLRNSSCAPTYR as the substance, how does the amyloid nucleation score read?
The amyloid nucleation score was -0.641 ± 1.4.

With VLVICWFRDDGYSVFLCCQT as the substance, how does the amyloid nucleation score read?
Its amyloid nucleation score is “inactive”.

With VLVNGSGRNWEYYISRRFFF as the substance, how does the amyloid nucleation score read?
The amyloid nucleation score was “inactive”.

Which amyloid nucleation score does the source give for VLVVLDVRRGTDLCTF here?
The amyloid nucleation score was “inactive”.

Which amyloid nucleation score does the source give for VLVVPKQVTWEVGF here?
Its amyloid nucleation score is “inactive”.

With VMCLVSRPPQWSVLDVSTIM as the substance, how does the amyloid nucleation score read?
The amyloid nucleation score was “inactive”.

For VMCMCCISVHSTLMFLDITN, which amyloid nucleation score is on record?
The amyloid nucleation score was 2.85 ± 0.063.

For VMDVEIGSASSLYKRTSTSE, which amyloid nucleation score is on record?
The amyloid nucleation score was “inactive”.

For VMIKSC, which amyloid nucleation score is on record?
Its amyloid nucleation score is “inactive”.

With VMRALL as the substance, how does the amyloid nucleation score read?
Its amyloid nucleation score is “inactive”.

For VMRGASYFPTELADDDLMPG, which amyloid nucleation score is on record?
Its amyloid nucleation score is “inactive”.

With VMRLHRCKELVCDSIYTLRG as the substance, how does the amyloid nucleation score read?
Its amyloid nucleation score is “inactive”.

Which amyloid nucleation score does the source give for VMVSYG here?
The amyloid nucleation score was “inactive”.

For VMYGEVSDTYMAREICKFSA, which amyloid nucleation score is on record?
The amyloid nucleation score was “inactive”.

For VMYVVYFHELVYYR, which amyloid nucleation score is on record?
The amyloid nucleation score was “inactive”.

With VNCQCSSEWCHKNSVYFIRY as the substance, how does the amyloid nucleation score read?
Its amyloid nucleation score is 2.59 ± 0.087.

For VNDVLASLTLCMWLVEWGMK, which amyloid nucleation score is on record?
Its amyloid nucleation score is “inactive”.

For VNEIRDILLVSYSKFRAWGQ, which amyloid nucleation score is on record?
The amyloid nucleation score was 1.2 ± 0.13.

With VNGFRVHWERPEHCYSVLML as the substance, how does the amyloid nucleation score read?
Its amyloid nucleation score is “inactive”.

Which amyloid nucleation score does the source give for VNLEDGSGDSCKDNCNGERF here?
Its amyloid nucleation score is -0.821 ± 0.84.

For VNLGDGHVDDSIASQDMWHK, which amyloid nucleation score is on record?
The amyloid nucleation score was “inactive”.

Which amyloid nucleation score does the source give for VNLITREHLKKGSMNNFIAN here?
Its amyloid nucleation score is “inactive”.

Which amyloid nucleation score does the source give for VNNNYEVCNDRDSCPLINFC here?
Its amyloid nucleation score is “inactive”.

Which amyloid nucleation score does the source give for VNPIERWA here?
The amyloid nucleation score was “inactive”.

For VNVIDLFGFQPSNRLTGNVR, which amyloid nucleation score is on record?
Its amyloid nucleation score is “inactive”.

For VNVTIGIYKRHRYLWSGIAM, which amyloid nucleation score is on record?
The amyloid nucleation score was “inactive”.

Which amyloid nucleation score does the source give for VNWRVRWIYSILGKS here?
Its amyloid nucleation score is “inactive”.

Which amyloid nucleation score does the source give for VPGMSAVCKMGLLLDVGVHE here?
The amyloid nucleation score was “inactive”.

For VPPVVSAP, which amyloid nucleation score is on record?
Its amyloid nucleation score is 1.05 ± 0.12.

Which amyloid nucleation score does the source give for VPRVSSTQDCNRLILRKVCL here?
The amyloid nucleation score was “inactive”.

For VQGIPELALMLSRARGRGV, which amyloid nucleation score is on record?
The amyloid nucleation score was “inactive”.

Which amyloid nucleation score does the source give for VQLLDRNEIFGVWGSIELLQ here?
The amyloid nucleation score was “inactive”.

For VQLPVIVSAPPI, which amyloid nucleation score is on record?
Its amyloid nucleation score is -0.421 ± 1.1.

For VQPSFTMYMEFSCACVAMQL, which amyloid nucleation score is on record?
Its amyloid nucleation score is -0.423 ± 0.49.

Which amyloid nucleation score does the source give for VQVMETEMRSVVA here?
The amyloid nucleation score was “inactive”.

With VQYNHLRVVSHDVNENGEPR as the substance, how does the amyloid nucleation score read?
The amyloid nucleation score was “inactive”.

Which amyloid nucleation score does the source give for VRDFGLPTWAQLAWMYNANG here?
The amyloid nucleation score was -0.229 ± 1.1.

For VREFTFYDV, which amyloid nucleation score is on record?
Its amyloid nucleation score is “inactive”.

With VRESAWGLYNRYFSVFSAVV as the substance, how does the amyloid nucleation score read?
Its amyloid nucleation score is “inactive”.

With VRGIAIACWSQFCNWRICCR as the substance, how does the amyloid nucleation score read?
Its amyloid nucleation score is -0.231 ± 0.82.

Which amyloid nucleation score does the source give for VRGNYRNSFACRVLNHDQFW here?
Its amyloid nucleation score is “inactive”.

For VRLNALIHDIVMMVWGTMHG, which amyloid nucleation score is on record?
The amyloid nucleation score was “inactive”.

Which amyloid nucleation score does the source give for VRLSKHMLVIDRGLKQLVIY here?
The amyloid nucleation score was “inactive”.

For VRLYYSKPRLKRGDSCVEKY, which amyloid nucleation score is on record?
Its amyloid nucleation score is “inactive”.

With VRMRDFKENARRMVP as the substance, how does the amyloid nucleation score read?
Its amyloid nucleation score is “inactive”.

Which amyloid nucleation score does the source give for VRMSRYSEWQDFNIPIEVIV here?
Its amyloid nucleation score is 0.776 ± 0.16.

For VRMTAIFLNLKVWQSNMFVV, which amyloid nucleation score is on record?
The amyloid nucleation score was “inactive”.

Which amyloid nucleation score does the source give for VRNLLKMTFR here?
Its amyloid nucleation score is “inactive”.

For VRQWSTFASLMYATENGVNN, which amyloid nucleation score is on record?
Its amyloid nucleation score is “inactive”.

With VRRDLGFFSRNVT as the substance, how does the amyloid nucleation score read?
Its amyloid nucleation score is “inactive”.

For VRRKDSNSCVSSHTASQSGW, which amyloid nucleation score is on record?
The amyloid nucleation score was “inactive”.

For VRSARRQAGELEGFYCLYQV, which amyloid nucleation score is on record?
Its amyloid nucleation score is “inactive”.

With VRSKLYGPDVYPTHLGTAVM as the substance, how does the amyloid nucleation score read?
Its amyloid nucleation score is “inactive”.

Which amyloid nucleation score does the source give for VRSQGLHRRVFFIATGIKLG here?
The amyloid nucleation score was “inactive”.

With VRSTYGNKGFVSQRGLQFSP as the substance, how does the amyloid nucleation score read?
The amyloid nucleation score was “inactive”.

Which amyloid nucleation score does the source give for VRTRWFIAPVCVARGSLCLV here?
Its amyloid nucleation score is “inactive”.

For VSAFFRSKG, which amyloid nucleation score is on record?
The amyloid nucleation score was “inactive”.

For VSCMLLSRDLCLQSFIWMLL, which amyloid nucleation score is on record?
Its amyloid nucleation score is “inactive”.

With VSDILADCPIIRPGGYCCVS as the substance, how does the amyloid nucleation score read?
The amyloid nucleation score was “inactive”.

For VSDLEERSSILG, which amyloid nucleation score is on record?
The amyloid nucleation score was “inactive”.

For VSEFRRVYFSAQFSRVGNSC, which amyloid nucleation score is on record?
The amyloid nucleation score was “inactive”.

With VSELPSACDNYIYCCNG as the substance, how does the amyloid nucleation score read?
Its amyloid nucleation score is 0.326 ± 0.2.

For VSGLFDVTLRGWYG, which amyloid nucleation score is on record?
The amyloid nucleation score was “inactive”.

For VSGSFVYLLCNS, which amyloid nucleation score is on record?
The amyloid nucleation score was “inactive”.

With VSLQLLWNPMLSYFTFQVGR as the substance, how does the amyloid nucleation score read?
The amyloid nucleation score was 1.16 ± 0.19.

With VSMCNLNGVLPLNLFRLGLC as the substance, how does the amyloid nucleation score read?
The amyloid nucleation score was “inactive”.

Which amyloid nucleation score does the source give for VSNLGCCKALSCGMSYRVCW here?
Its amyloid nucleation score is “inactive”.

For VSPRRGHNVYLIVAARWCVA, which amyloid nucleation score is on record?
Its amyloid nucleation score is “inactive”.

With VSRVSLKRRYALM as the substance, how does the amyloid nucleation score read?
Its amyloid nucleation score is -1.13 ± 2.5.

For VSTRFFSACTLHFQSSMPYC, which amyloid nucleation score is on record?
The amyloid nucleation score was “inactive”.

Which amyloid nucleation score does the source give for VSYLVCIDWVCPSGQWNAFW here?
Its amyloid nucleation score is 1.52 ± 0.11.

For VSYRCSTICTNLVITVCLCD, which amyloid nucleation score is on record?
The amyloid nucleation score was 0.25 ± 0.34.

For VSYTYAGYSIRYIVFSS, which amyloid nucleation score is on record?
Its amyloid nucleation score is “inactive”.

Which amyloid nucleation score does the source give for VTELDEWSGIVVEGYNACSS here?
Its amyloid nucleation score is “inactive”.

With VTHCSVFHLGNTWLVQLWWY as the substance, how does the amyloid nucleation score read?
The amyloid nucleation score was -0.513 ± 1.3.

For VTNQSFDQPESLVEM, which amyloid nucleation score is on record?
Its amyloid nucleation score is “inactive”.

With VTSNSDRT as the substance, how does the amyloid nucleation score read?
The amyloid nucleation score was “inactive”.

For VTVQLCSNLIMGTWRTRNVL, which amyloid nucleation score is on record?
Its amyloid nucleation score is “inactive”.

With VTVRKFMVSLWSGGPTWDGR as the substance, how does the amyloid nucleation score read?
The amyloid nucleation score was “inactive”.

With VVATILLVHPPVKHWSCDLM as the substance, how does the amyloid nucleation score read?
The amyloid nucleation score was -0.859 ± 0.73.

Which amyloid nucleation score does the source give for VVCDNYG here?
Its amyloid nucleation score is 0.607 ± 0.23.

With VVCLLALKIYDMLCRCQDVV as the substance, how does the amyloid nucleation score read?
The amyloid nucleation score was “inactive”.

For VVFWNFTRMLCLG, which amyloid nucleation score is on record?
The amyloid nucleation score was “inactive”.
